# Measurements taken from patent publication US20250236878A1 (priority 2019, published 2025).
# B1: Serine Protease 2: serine protease 2 cloned from Bacillus subtilis, four substitutions relative to SEQ ID NO: 722 (protein, listed as Bacillus subtilis)
# chain: SSKTSADLEKAEVFGDIDMTTSKKTTVIVELKEKSLAEAKEAGESQSKSKLKTARTQAKNKAIKAVKNGKVNREYEQVFSGFSMKLPANEIPKLLAVKDVKAVYPNVTYKTDNMKDKDVTISEDAVSPQMDDSAPYIGANDAWDLGYTGKGIKVAIIDTGVEYNHPDLKKNFGQYKGYDFVDNDYDPKETPTGDPRGEATDHGTHVAGTVAANGTIKGVAPDATLLAYRVLGPGGSGTTENVIAGVERAVQDGADVMNLSLGNSLNNPDWATSTALDWAMSEGVVAVTSNGNSGPNGWTVGSPGTSREAISVGATQLPLDEYAVTFGSYSSAKVMGYNKEDDVKALNNKEVELVEAGIGEAKDFEGKDLTGKVAVVKRGSIAFVDKADNAKKAGAIGMVVYNNLSGEIEANVPGMSVPTIKLSLEDGEKLVSALKAGETKTTFKLTVSKALGEQVADFSSRGPVMDTWMIKPDISAPGVNIVSTIPTHDPDHPYGYGSKQGTSMASPHIAGAVAVIKQAKPKWSVEQIKAAIMNTAVTLKDSDGEVYPHNAQGAGSARIMNAIKADSLVSPGSCSYGTFLKENGNETKNETFTIENQSSIRKSYTLEYSFNGSGISTSGTSRVVIPAHQTGKATARVKVNTKKTKAGTYEGTVIVREGGKTVAKVPTLLIVKEPDYPRVTSVSVSEGSVQGTYQIETYLPAGAEELAFLVYDSNLDFAGQAGIYKNQDKGYQYFDWDGTINGGTKLPAGEYYLLAYAANKGKSSQVLTEEPFTVE
# B2: B-1,3-Endoglucanase from Barley (SEQ ID NO: 731) (protein)
# chain: GVCYGVIGNNLPSRSDVVQLYRSKGINGMRIYFADGQALSALRNSGIGLILDIGNDQLANIAASTSNAASWVQNNVRPYYPAVNIKYIAAGNEVQGGATQSILPAMRNLNAALSAAGLGAIKVSTSIRFDEVANSFPPSAGVFKNAYMTDVARLLASTGAPLLANVYPYFAYRDNPGSISLNYATFQPGTTVRDQNNGLTYTSLFDAMVDAVYAALEKAGAPAVKVVVSESGWPSAGGFAASAGNARTYNQGLINHVGGGTPKKREALETYIFAMFNENQKTGDATERSFGLFNPDKSPAYNIQF
# modifications: Hordeum vulgare
# B3: ACC deaminase: 1-aminocyclopropane-1-carboxylate deaminase polypeptide with two substitutions relative to wild type (protein, listed as Bacillus thuringiensis)
# chain: MNLAKFPRKKYTESYTPIEKLNNFSEALGGPTIYFKRDDLLGLTAGGNKTRKLEFLVADAQEKGADTLITAGGIQSNHCRLTLAAAVKEKMKCILVLEEGLEPEEKRDFNGNYFLYHLLGAENVIVVPNGADLMEEMNKVAKEVSEKGSTPYVIPVGGSNPTGAMGYVACAQEIMAQSFEQGIDFSSVVCVSGSGGMHAGLITGFSGTQSHIPVIGINVSRGKAEQEEKVAKLVDETSAHVGIPNFISRDAVTCFDEYVGPGYALPTPEMVEAVQLLAKTEGILLDPVYEGKAVAGLIDLIRKGKFNKEDNILFVHLGGSPALYANTSLFA
# B4: Amylase from Bacillus subtilis 168: starch-degrading Amylase, trunk-injected at 92 U per tree (protein, UniProt P00691 42-659, looked up)
# Alpha-amylase: LTAPSIKSGTILHAWNWSFNTLKHNMKDIHDAGYTAIQTSPINQVKEGNQGDKSMSNWYWLYQPTSYQIGNRYLGTEQEFKEMCAAAEEYGIKVIVDAVINHTTSDYAAISNEVKSIPNWTHGNTQIKNWSDRWDVTQNSLLGLYDWNTQNTQVQSYLKRFLDRALNDGADGFRFDAAKHIELPDDGSYGSQFWPNITNTSAEFQYGEILQDSASRDAAYANYMDVTASNYGHSIRSALKNRNLGVSNISHYASDVSADKLVTWVESHDTYANDDEESTWMSDDDIRLGWAVIASRSGSTPLFFSRPEGGGNGVRFPGKSQIGDRGSALFEDQAITAVNRFHNVMAGQPEELSNPNGNNQIFMNQRGSHGVVLANAGSSSVSINTATKLPDGRYDNKAGAGSFQVNDGKLTGTINARSVAVLYPDDIAKAPHVFLENYKTGVTHSFNDQLTITLRADANTTKAVYQINNGPETAFKDGDQFTIGKGDPFGKTYTIMLKGTNSDGVTRTEKYSFVKRDPASAKTIGYQNPNHWSQVNAYIYKHDGSRVIELTGSWPGKPMTKNADGIYTLTLPADTDTTNAKVIFNNGSAQVPGQNQPGFDYVLNGLYNDSGLSGSLPH
# Key:
# [1] = test system: Pseudomonas syringae pv. actinidiae (PSA-V); type: in vivo; settings: at 6, 16 and 23 DAI; P<0.1
# [2] = test system: Citrus trees infected with CLas; type: in vivo, Citrus x paradisi; Citrus sinesis; settings: average of 'Ruby Red' and 'Valencia'
# Excerpt: Treatments as previously described in Example 3; β-1,3-Endoglucanase from barley SEQ ID NO: 731 (Treatment 1) and Bt.4Q7Flg22 from Bacillus thurigiensis SEQ ID NO: 226 (Treatment 5) increased fruit yield (kg/tree) as described in Table 56. Fruit quality, and juice quality of ‘Valencia’ oranges are described in Table 57.
# For direct comparison of the treatment results between grapefruit (‘Ruby Red’) and orange (‘Valencia’) are referenced in Table 56 above.
# [3] = test system: Citrus trees infected with CLas; experiment: Recovery composition trunk injection: 'Valencia' orange fruit yield (Examples 3, 19); type: in vivo, Citrus sinesis; settings: 'Valencia' orange; trunk injection
# [4] = test system: Citrus trees infected with CLas; design: species or system Citrus sinesis; settings: in vivo
# [5] = test system: Citrus trees infected with Candidatus Liberibacter asiaticus; type: in vivo, Citrus x paradisi; settings: […]; trunk injection
# [6] = test system: corn hybrids Beck's 6127 BHMF and 6127 DVMF; settings: in vivo
# [7] = test system: HLB-infected citrus trees; experiment: Citrus trials of Examples 20-24: fruit yield, size, count and drop, average over orange and grapefruit trials; type: in vivo, Citrus sinesis; Citrus paradisi; settings: trunk injection (Table 64)
# Protocol: All fruit with a diameter greater than or equal to 1.6 inches (40 mm) were hand-picked and collected for each tree. The total “Fruit Weight” (in kilograms) per individual tree was measured and recorded. Trees with total fruit weights less than or greater than 2 standard deviations (2STDEV) from the trial mean were considered to be outliers and removed from the dataset. Fruit size was assessed as the “Average Weight per Fruit” in grams (weight of 20 random fruit per tree, divided by 20) and “Average Fruit Diameter” in millimeters, as described in Example 1. The “Average Fruit Count” per tree was assessed as the total “Fruit Weight” divided by “Average Weight per Fruit”. “Fruit Drop” was assessed as for Example 1. Fruit quality was assessed as for Example 2, with the exception that one set of fruit consisted for 15 total fruit, each corresponding to a sampling of 3 fruit from 5 trees of the same experimental treatment block. Each set of 15 fruit were weighed (gram; g) and then juiced together. Average yield, % fruit drop, fruit size, and juice quality for each of the tested compositions are described in Examples 20-24.
molecule,measurement,setting,value
B1,PSA-V leaf spot symptoms in comparison to the untreated control,[1],significantly reduced
B2,"Average Yield (Relative to Untreated), Average of 2 sites",[2],(124%)
same,Average Yield (Relative to Untreated),[3],(136%)
same,Average Yield (kg per tree),[3],54.8 kg per tree
same,Average Fruit Diameter (Relative to Untreated),[4],(104%)
same,Average Fruit Diameter (mm),[4],62.76 mm
same,Brix:CA Ratio,[4],12.01
same,Brix:CA Ratio (Relative to Untreated),[4],(+0.76)
same,Average Yield (Relative to Untreated),[5],(112%)
same,Average Yield (kg per tree),[5],38.7 kg per tree
B3,average yield benefit over the control corn plants,[6],+7.16 flu/Ac
B4,average increase in fruit weight relative to control,[7],5%
